Measurements taken from publication PMC4760772, “The Development of a Recombinant scFv Monoclonal Antibody Targeting Canine CD20 for Use in Comparative Medicine” (PLoS ONE, 2016).

Legend:
[1] = biological target: T1, biotinylated canine CD20 peptide (biotin-SGSGNCDPANPSEKNSLSIQYCGS) (Canis lupus familiaris, biotin on the N-terminus); assay: BLI; Octet RED, as a1 but in the presence of DTT; relative Kd; conditions: both partners purified
T1 construct: spacer between the biotin and the CD20 stretch; also called biotinylated CD20 peptide
T1 chain: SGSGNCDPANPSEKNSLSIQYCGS

[2] = biological target: T2, biotinylated canine CD20 peptide (biotin-SGSGNCDPANPSEKNSLSIQYCGS) (canine, biotin on the N-terminus); assay: BLI; with DTT
T2 peptide: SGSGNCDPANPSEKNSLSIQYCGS

[3] = biological target: T3, endogenous canine CD20 protein in 3132 canine lymphoma cells (Canis lupus familiaris (Dog) (Canis …, UniProt Q3C2E2)); assay: immunoblot; lysates or chemical fractions of 3132 canine lymphoma cells, and lysates of H1299 cells transfected with human GFP-CD20, blotted with NCD1.2; conditions: one partner purified
T3 construct: canine CD20, endogenous protein; also called authentic canine CD20 protein

[4] = biological target: T4, canine CD20 protein in clinically-derived canine cells and tissue (Canis lupus familiaris (Dog) (Canis …, UniProt Q3C2E2)); assay: immunostaining of cells or tissue; immunohistochemistry on formalin fixed paraffin embedded canine lymphoma tissue (tissue micro array), heat induced antigen retrieval; conditions: one partner purified
T4 construct: canine CD20 on normal B cells and B-cell lymphoma cells of dogs; also called membranous CD20; CD20 in canine tissue

[5] = biological target: T5, fluorescein-labeled peptide corresponding to human CD20 (NCEPANPSEKNSPSTQYCYS) (Homo sapiens (Human)., fluorescein (FITC) label, position not stated); assay: fluorescence polarisation; antibody titrated against 30 nM fluorescein-labeled human CD20 peptide in PBS, 0.05% Tween-20; 1 hr at room temperature, read at 21°C; purified mouse immunoglobulins subtracted as nonspecific binding; conditions: both partners purified
T5 construct: also called FITC tagged human CD20 peptide; fluorescent human CD20 peptide
T5 chain: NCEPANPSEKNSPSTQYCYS

[6] = biological target: T1, biotinylated canine CD20 peptide …; assay: BLI; Octet RED, biotinylated CD20 peptide on streptavidin biosensors, antibody 32 nM to 0.5 nM in solution, 30°C, PBS pH 7.4 with 0.02% Tween 20, 0.005% sodium azide, 100 μg/mL BSA; global fit 1:1; relative Kd; absence of DTT; conditions: both partners purified
[7] = biological target: T2, biotinylated canine CD20 peptide …; assay: BLI; without DTT
[8] = biological target: T6, bacterially expressed his-tagged canine CD20 protein (amino acids 140–190) (Canis lupus familiaris, UniProt Q3C2E2); assay: immunoblot; purified his-tagged canine CD20 (140-190) after electrophoresis without and with DTT, blotted with NCD1.2; conditions: both partners purified
T6 construct: canine CD20, amino acids 140-190 comprising the extracellular domain; also called recombinant canine CD20 protein; His-tagged CD20 protein; source: bacterially expressed, purified by nickel chromatography

[9] = biological target: T6, bacterially expressed his-tagged canine …; assay: ELISA; CHO supernatants (diluted 1:40 or 1:80) on His-tagged CD20 protein or on biotinylated CD20 peptide; detected with peroxidase conjugated protein A, TMB, OD 450 nm; conditions: one partner purified

T6 sequence (Q3C2E2 140-190): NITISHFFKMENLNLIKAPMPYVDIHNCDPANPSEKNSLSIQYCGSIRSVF
T3 sequence (Q3C2E2 whole entry): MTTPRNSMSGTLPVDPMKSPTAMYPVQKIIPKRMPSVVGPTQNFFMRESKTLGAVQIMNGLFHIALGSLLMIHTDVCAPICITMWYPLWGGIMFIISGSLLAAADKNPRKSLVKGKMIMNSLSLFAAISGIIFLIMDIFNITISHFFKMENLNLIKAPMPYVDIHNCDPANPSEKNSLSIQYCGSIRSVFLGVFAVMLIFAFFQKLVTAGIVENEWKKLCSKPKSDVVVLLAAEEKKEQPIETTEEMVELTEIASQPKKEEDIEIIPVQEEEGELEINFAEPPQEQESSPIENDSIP
T4 sequence (Q3C2E2 whole entry): as above

Binder | Kd [1] [nM] | koff [2] [s⁻¹] | binding result [3] | binding result [4] | binding result [5] | Kd [6] [nM] | koff [7] [s⁻¹] | binding result [8] | binding result [9]
monoclonal antibody NCD1.2 (antibody, V domains shown, VH cloned from the NCD1.2 hybridoma, as the VH of m9 and m10 (scFv-3 and scFv-7; identical VH genes, identical CDRs); the first residues of the cloned VH come from degenerate PCR primers; constant region of a mouse IgG; VL as the VL of m9 (scFv-3) or of m10 (scFv-7); both light chain mRNAs are made by the hybridoma; mouse light chain constant region; not described; IgG; also called NCD1.2 MAB; …) VH: VESGGGLVQPGDSLRLSCATSGFTFTDYFMSWVRQPPGKSLEWLGLIRNKVNGYTAEYSASVKGRFTISRDNSRGILYLQMYTLRAEDSATYYCVRASTGTSFVYWGQGTLVTVSA VL: AAAFSNPVTLGTSVSISCRSSKSLLHRNGFTYLYWYLQRPGQSPQLLIYQMSNLASGVPDRFSSSGSGTDFTLRISRVEAEDVGVYYCAQNLELPFTFGGGTKLELK | 0.31 | 3.41e-05 | binds | binds | binds | 0.34 | 3.19e-05 | binds | –
scFv-3 secreted from CHO cells (scFv, V domains shown, VL of scFv-3, as in m9; linker, as in m9; VH of scFv-3, as in m9; Cloned into the KpnI-EcoRI sites of pCDNA3.1; also called scFv-3 supernatant) VH: EVNVVESGGGLVQPGDSLRLSCATSGFTFTDYFMSWVRQPPGKSLEWLGLIRNKVNGYTAEYSASVKGRFTISRDNSRGILYLQMYTLRAEDSATYYCVRASTGTSFVYWGQGTLVTVSA VL: DIVMTQPPAIMSASPGEKVTMTCSASSSVSYMHWYQQKSGTSPKRWIYDTSKLASGVPDRFSSSGSGTDFTLRISRVEAEDVGVYYCAQNLELPFTFGGGTKLEIK | – | – | – | – | – | – | – | – | binds
scFv-7 secreted from CHO cells (scFv, V domains shown, VL of scFv-7, as in m10; linker, as in m10; VH of scFv-7, as in m10; Cloned into the KpnI-EcoRI sites of pCDNA3.1; also called scFv-7 supernatant) VH: EVQGVESGGGLVQPGDSLRLSCATSGFTFTDYFMSWVRQPPGKSLEWLGLIRNKVNGYTAEYSASVKGRFTISRDNSRGILYLQMYTLRAEDSATYYCVRASTGTSFVYWGQGTLVTVSA VL: IVMTQAAAFSNPVTLGTSVSISCRSSKSLLHRGFTYLYWYLQRPGQSPQLLIYQMSNLASGVPDRFSSSGSGTDFTLRISRVEAEDVGVYYCAQNLELPFTFGGGTKLELK | – | – | – | – | – | – | – | – | binds
